Laboratory results published in article PMC4585773, “The C-terminus hot spot region helps in the fibril formation of bacteriophage-associated hyaluronate lyase (HylP2)” (Scientific Reports, 2015).

B1: bacteriophage-associated hyaluronate lyase HylP2 (enzyme, Streptococcus pyogenes bacteriophage, UniProt Q54699 1-337, looked up)
chain: MSENIPLRVQFKRMKAAEWARSDVILLESEIGFETDTGFARAGDGHNRFSDLGYISPLDYNLLTNKPNIDGLATKVETAQKLQQKADKETVYTKAESKQELDKKLNLKGGVMTGQLKFKPAATVAYSSSTGGAVNIDLSSTRGAGVVVYSDNDTSDGPLMSLRTGKETFNQSALFVDYKGTTNAVNIAMRHATTPNFSSALNITSGNENGSAMQLRGSEKALGTLKITHENPSIGADYDKNAARYPLILSKRQNGAGTAAQGIYINSTSGTTGKLLRIRNLSDDKFYVKSDGGFYAKETSQIDGNLKLKDPTANDHAATKAYVDKAISELKKLILKK
notes: hyaluronate lyase HylP2 encoded by a Streptococcus pyogenes bacteriophage, full length, residues 1-337; also called HylP2_(1-337); phage hyaluronate lyase; source: E. coli BL21 (DE3), purified
B2: HylP_(M179V,M181V) (enzyme, Streptococcus pyogenes bacteriophage, UniProt P15316 1-371, looked up)
chain: MTENIPLRVQFKRMSADEWARSDVILLEGEIGFETDTGFAKFGDGQNTFSKLKYLTGPKGPKGDTGLQGKTGGTGPRGPAGKPGTTDYDQLQNKPDLGAFAQKEETNSKITKLESSKADKSAVYSKAESKIELDKKLSLTGGIVTGQLQFKPNKSGIKPSSSVGGAINIDMSKSEGAAVVVYTNKDTTDGPLMILRSDKDTFDQSAQFVDYSGKTNAVNIVMRQPSAPNFSSALNITSANEGGSAMQIRGVEKALGTLKITHENPNVEAKYDENAAALSIDIVKKQKGGKGTAAQGIYINSTSGTAGKMLRIRNKNEDKFYVGPDGGFHSGANSTVAGNLTVKDPTSGKHAATKDYVDEKIAELKKLILKK
notes: hyaluronate lyase HylP of a Streptococcus pyogenes bacteriophage, residues 1-371, with M179V and M181V; made from the vector construct of full length HylP; Generated from the vector construct of m2; also called hot spot double mutant of HylP; source: E. coli BL21 (DE3), purified

Columns and labels:
[1] = target: the molecule itself; test: SEC; Superdex 200 HR 10/300, 25 °C, pH 5, 0.3 ml/min; step: the native enzyme to high molecular weight aggregates (void volume), compared with pH 7; no seeds
[2] = target: the molecule itself; test: thioflavin T fluorescence kinetics; pH 5, 5 uM protein, 10 uM ThT, emission at 480 nm against time, seeded with preformed HylP2 fibrils; step: the native enzyme to fibrils

Protein | binding result [1] | binding result [2]
B1 | binds | 
B2 |  | binds
